Here are results for 1 substance from publication PMC12120875.

For the experiment, the target named is VqERF1B-mCherry (Vitis quinquangularis accession 'Danfeng-2'). Put plainly: FRET or BRET. (Bioluminescence resonance energy transfer reports proximity on the nanometre scale.)

VqERF062-GFP (natural protein) displayed an FRET efficiency of 32%.
